Test results: patent US7977317B2, “Compositions and methods for modulating blood-brain barrier transport” (Raptor Pharmaceutical Inc., priority 2001, dated 2011)

Legend:
[1] = In situ brain perfusion with capillary depletion; type: in vivo; conditions: mice, 10 min perfusion
Protocol: FIG. 11 examines the accumulation and transcytosis of p97. FIG. 11a, of [^125I]-p97, [^125I]-BSA and [^125I]-holo-transferrin one hour after i.v. injection. The radioactivity in brain was compared between the three compounds. (n=3); FIG. 11b, Accumulation of p97 and transferrin into the mouse brain parenchyma. In situ brain perfusion was performed with human [^125I]-p97 or [^125I]-holo-transferrin at a final concentration of 10 nM via a catheter inserted in the right common carotid artery. The volume of distribution (VD) of [^125I]-proteins were obtained in the whole brain homogenate (white bars), in brain capillaries (solid bars) and in brain parenchyma (hatched bars) after isolation of the right hemisphere and capillary depletion. Results were obtained for p97 (n=10) and for holo-transferrin (n=6); FIG. 11c, Transcytosis of p97 across BBCEC monolayers. Transcytosis experiments were performed 37° C. (open circles) and 4° C. (closed circles) with BBCEC monolayers. […] Apical-to-basal and basal-to-apical transport of [^125I]-p97 (25 nM) was measured for 2 hrs at 37° C. At the end of the experiment, [^125I]-p97 was assessed in the lower or upper chambers of each well by TCA precipitation (n=4).
A. Brain uptake and in situ brain perfusion. […] The serum and brain samples were collected and the levels of radioactivity were measured. […]

LRP1B = assay: RT-PCR after p97 and RAP treatments in U-87 cells: LRP1B; type: cell-based, human; conditions: 72 hours, RT-PCR (FIG. 35)
Protocol: FIG. 34. Effect of p97 and RAP treatments in U-87 cells. A. Cells (2×10^5) were plated onto six-multiwell microplates and grown at 37° C. under 5% CO2 with optimal culture medium supplemented with serum for 4 days. Treatment was performed in serum free medium for 72 hours. RNA isolation and RT-PCR were performed as described in the Examples. B. LRP/LRP1B was immunodetected in cells lysates as described in the Examples. […] (N=2 for p97 treatment), (n=1 for RAP treatment)
FIG. 35. Effect of p97 and RAP treatments in U-87 cells (RT-PCR). Cells (2×10^5) were plated onto six-multiwell microplates and grown at 37° C. under 5% CO2 with optimal culture medium supplemented with serum for 4 days. Treatment was performed in serum free medium for 72 hours. RNA isolation and RT-PCR were performed as described in the Examples. The amplified PCR products were electrophoresed on a 2% agarose gel and visualized under ultraviolet light. (n=2 for p97), (n=1 for RAP)
RNA extraction. Cells in six-wells plate or in 75 cm^2 plastic tissue culture flasks were grown at 37° C. under 5% CO2 with optimal culture medium to 80-90% confluence. Total cellular RNA was preserved in Trizol (Gibco BRL, Burlington, ON). The solution are frozen at −80° C. until extraction. The solution was defroze and mixed with 5:1 chloroform for 3 minutes at room temperature. The suspension was centrifugated at 12000 g at 4° C. […]

B1: p97: recombinant human melanotransferrin (p97), provided by Synapse Technologies (protein, UniProt P08582 20-709, looked up)
Melanotransferrin: GMEVRWCATSDPEQHKCGNMSEAFREAGIQPSLLCVRGTSADHCVQLIAAQEADAITLDGGAIYEAGKEHGLKPVVGEVYDQEVGTSYYAVAVVRRSSHVTIDTLKGVKSCHTGINRTVGWNVPVGYLVESGRLSVMGCDVLKAVSDYFGGSCVPGAGETSYSESLCRLCRGDSSGEGVCDKSPLERYYDYSGAFRCLAEGAGDVAFVKHSTVLENTDGKTLPSWGQALLSQDFELLCRDGSRADVTEWRQCHLARVPAHAVVVRADTDGGLIFRLLNEGQRLFSHEGSSFQMFSSEAYGQKDLLFKDSTSELVPIATQTYEAWLGHEYLHAMKGLLCDPNRLPPYLRWCVLSTPEIQKCGDMAVAFRRQRLKPEIQCVSAKSPQHCMERIQAEQVDAVTLSGEDIYTAGKTYGLVPAAGEHYAPEDSSNSYYVVAVVRRDSSHAFTLDELRGKRSCHAGFGSPAGWDVPVGALIQRGFIRPKDCDVLTAVSEFFNASCVPVNNPKNYPSSLCALCVGDEQGRNKCVGNSQERYYGYRGAFRCLVENAGDVAFVRHTTVFDNTNGHNSEPWAAELRSEDYELLCPNGARAEVSQFAACNLAQIPPHAVMVRPDTNIFTVYGLLDKAQDLFGDDHNKNGFKMFDSSNYHGQDLLFKDATVRAVPVGEKTTYRGWLGLDYVAALEGMSSQQC
[1]
  Apparent VD of p97 in brain parenchyma relative to transferrin: 8.8 fold
[1]; 10 nM [125I]-protein (FIG. 11b)
  Apparent VD in the brain parenchyma: 17.2 ml/100 g
LRP1B
  Expression of the LRP1B receptor: induces the expression
